Results on one substance are retold here after US20040006009A1.

In the assay the target is MASP (MBL-associated serine proteases) purified from an MBL deficient individual. In words: cell-based or functional assay.

Take “recombinant human mannan binding lectin (MBL) (from UniProt P11226 21-248)”: the C4-activation compared to the reference N105-11A (EC50 = 100%); PE0407 5 mg/ml with 1 mM CaCl2, T = 2 months at +4° C. came out at 92%; the C4-activation compared to the reference N105-11A (EC50 = 100%); PE0407 5 mg/ml with 1 mM CaCl2, T = 2 months at +37° C. came out at 94%; the C4-activation compared to the reference N105-11A (EC50 = 100%); PE0407 5 mg/ml with 1 mM CaCl2, T = 2 months at -20° C. amounted to 91%; the C4-activation compared to the reference N105-11A (EC50 = 100%); control 5 mg/ml without calcium, T = 2 months at 37° C. came to 19%. This substance also displayed a C4-activation, EC50% relative to a MBL standard; PE0305 10 mg/ml, T = 0 months (% relative to MBL standard) of 94; a C4-activation, EC50% relative to a MBL standard; PE0305 10 mg/ml, T = 2½ months at +4° C. (% relative to MBL standard) of 78; a C4-activation, EC50% relative to a MBL standard; PE0305 10 mg/ml, T = 2½ months at +37° C. (% relative to MBL standard) of 36; a C4-activation, EC50% relative to a MBL standard; PE0305 10 mg/ml, T = 2½ months at -20° C. (% relative to MBL standard) of 81. The same substance registered a C4-activation, EC50% relative to a MBL standard; PE0305 10 mg/ml, T = 5 months at +4° C. (% relative to MBL standard) of 80.3; a C4-activation, EC50% relative to a MBL standard; PE0305 10 mg/ml, T = 5 months at +37° C. (% relative to MBL standard) of 14.3; a C4-activation, EC50% relative to a MBL standard; PE0305 10 mg/ml, T = 5 months at -20° C. (% relative to MBL standard) of 81.7; a C4 activation assay, EC50 relative to reference (100%); PE0238 1 mg/ml, 12 months at +4 degree (% of reference) of 105. The substance also gave a C4 activation assay, EC50 relative to reference (100%); PE0238 1 mg/ml, 12 months at -20 degree (% of reference) of 104.
